Test system: peptide library, one residue held at a place counted from the S/T acceptor
Experiment: relative phosphorylation of the sub-library (ratio to the mean residue at this position); higher = residue favoured
Details: human
Procedure, shortened: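 Spots on streptavidin membranes were phosphorimaged and quantified by densitometry to measure phosphorylation of biotinylated degenerate peptide sub-libraries by purified recombinant kinases, human or orthologue constructs. The reactions ran in 384-well plates for 90 min under kinase-specific conditions, with peptides at 50 μM and 50 μM ATP spiked with γ-32P-ATP. Relative sub-library phosphorylation is the ratio to the mean residue at that position.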

PHKG2, construct: aa6-293, sequence (P15735 6-293, looked up): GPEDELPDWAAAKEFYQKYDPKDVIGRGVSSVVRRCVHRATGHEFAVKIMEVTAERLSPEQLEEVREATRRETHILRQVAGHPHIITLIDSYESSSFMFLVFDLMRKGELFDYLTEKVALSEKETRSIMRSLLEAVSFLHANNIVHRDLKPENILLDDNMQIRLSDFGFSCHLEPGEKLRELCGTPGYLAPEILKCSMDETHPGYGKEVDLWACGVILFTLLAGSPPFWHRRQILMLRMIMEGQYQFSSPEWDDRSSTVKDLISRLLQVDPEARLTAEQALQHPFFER
STK11, construct: Full length, sequence (Q15831 whole entry, looked up): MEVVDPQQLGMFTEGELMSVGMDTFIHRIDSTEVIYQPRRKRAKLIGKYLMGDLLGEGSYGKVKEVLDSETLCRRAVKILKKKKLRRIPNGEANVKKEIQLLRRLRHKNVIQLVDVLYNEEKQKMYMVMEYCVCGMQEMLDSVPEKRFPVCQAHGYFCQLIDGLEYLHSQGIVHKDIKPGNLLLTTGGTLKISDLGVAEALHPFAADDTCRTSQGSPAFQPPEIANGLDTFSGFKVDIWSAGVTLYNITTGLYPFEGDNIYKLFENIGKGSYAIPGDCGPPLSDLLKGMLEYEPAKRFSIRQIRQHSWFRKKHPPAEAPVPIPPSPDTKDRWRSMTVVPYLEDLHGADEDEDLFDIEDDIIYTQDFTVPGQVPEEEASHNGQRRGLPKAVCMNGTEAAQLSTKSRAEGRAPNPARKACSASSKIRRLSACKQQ
NUAK1, construct: Full length, sequence (O60285 whole entry, looked up): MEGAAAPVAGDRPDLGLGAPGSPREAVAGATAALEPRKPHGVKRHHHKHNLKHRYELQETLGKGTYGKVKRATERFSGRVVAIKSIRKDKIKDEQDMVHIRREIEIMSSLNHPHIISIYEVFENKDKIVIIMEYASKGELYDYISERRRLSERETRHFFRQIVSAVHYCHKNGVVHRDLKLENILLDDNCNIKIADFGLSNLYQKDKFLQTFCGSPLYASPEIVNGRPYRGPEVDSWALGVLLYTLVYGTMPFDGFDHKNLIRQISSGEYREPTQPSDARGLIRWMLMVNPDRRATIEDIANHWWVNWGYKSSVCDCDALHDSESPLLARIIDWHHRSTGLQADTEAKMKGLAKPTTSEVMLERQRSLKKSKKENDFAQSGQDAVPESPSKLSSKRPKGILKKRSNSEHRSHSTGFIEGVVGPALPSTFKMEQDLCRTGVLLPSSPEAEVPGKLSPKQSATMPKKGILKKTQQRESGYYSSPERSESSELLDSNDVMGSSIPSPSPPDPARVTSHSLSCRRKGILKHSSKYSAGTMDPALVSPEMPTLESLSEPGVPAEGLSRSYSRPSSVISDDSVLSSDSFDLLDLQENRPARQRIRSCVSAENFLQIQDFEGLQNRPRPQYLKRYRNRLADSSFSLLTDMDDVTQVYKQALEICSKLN
RIPK2, construct: aa2-317, sequence (O43353 2-317, looked up): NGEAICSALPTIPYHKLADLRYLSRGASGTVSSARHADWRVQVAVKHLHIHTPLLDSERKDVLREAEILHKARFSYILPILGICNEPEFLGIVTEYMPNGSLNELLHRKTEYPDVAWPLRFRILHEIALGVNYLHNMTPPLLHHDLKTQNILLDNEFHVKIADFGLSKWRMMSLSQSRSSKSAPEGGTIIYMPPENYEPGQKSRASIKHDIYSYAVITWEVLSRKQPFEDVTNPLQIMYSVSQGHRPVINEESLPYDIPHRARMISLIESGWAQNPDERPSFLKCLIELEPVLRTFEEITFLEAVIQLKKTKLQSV

NUAK1, construct: Full length (from UniProt O60285)
relative phosphorylation
Details	at +1	at +2	at +3	at +4	at -1	at -2	at -3	at -4	at -5
A fixed	0.726	0.749	0.566	0.716	1.14	1.47	0.552	1.04	0.835
D fixed	0.449	0.564	0.844	0.464	0.661	0.734	0.4	0.474	0.611
E fixed	0.545	0.312	0.418	0.359	0.488	0.532	0.397	0.867	0.436
F fixed	2.2	0.695	1.33	1.13	0.475	0.586	0.472	0.91	1.12
G fixed	0.839	1.15	0.566	0.81	1.27	0.931	0.454	0.673	0.609
H fixed	0.927	1.14	1.56	1.08	0.951	0.821	1.12	0.995	0.772
I fixed	0.559	1.16	0.888	1.76	0.261	0.557	0.322	0.792	2.04
K fixed	1.19	1.09	1.22	1.01	2.27	0.955	2.72	1.16	1.2
L fixed	0.666	1.19	0.907	2.45	0.613	0.489	0.395	1.12	2.08
M fixed	1.1	1.17	1.08	1.69	0.937	0.837	0.598	1.56	1.33
N fixed	1.2	1.52	1.53	0.786	1.58	4.11	0.691	0.776	0.631
P fixed	0.483	0.753	0.434	0.765	1.63	0.53	0.665	0.929	0.727
Q fixed	1.72	0.954	1	0.743	1.37	1.51	0.786	0.934	0.582
R fixed	1.25	1.7	0.909	0.617	1.6	0.926	6.15	1.41	1.24
V fixed	0.687	1.02	0.735	0.947	0.375	0.864	0.288	0.924	1.21
W fixed	0.935	0.929	1.58	0.809	0.571	0.583	0.521	1.54	0.775
Y fixed	1.51	0.889	1.42	0.869	0.822	0.554	0.468	0.891	0.802
pThr fixed	0.684	0.497	0.396	0.362	0.291	0.397	0.352	0.518	0.373
pTyr fixed	0.597	0.273	0.337	0.346	0.746	0.419	0.445	0.438	0.547

PHKG2, construct: aa6-293 (from UniProt P15735)
relative phosphorylation
Details	at +1	at +2	at +3	at +4	at -1	at -2	at -3	at -4	at -5
A fixed	0.436	0.632	0.881	0.674	0.927	0.973	0.741	0.731	0.93
D fixed	0.155	0.214	0.222	0.297	0.609	0.353	0.242	0.326	0.364
E fixed	0.198	0.157	0.301	0.246	0.389	0.466	0.3	0.561	0.38
F fixed	2.96	1.28	1.04	1.21	1.07	0.891	0.368	0.797	1.1
G fixed	0.369	0.579	0.828	0.774	0.977	0.985	0.578	0.833	0.768
H fixed	0.681	1.43	1.12	0.916	0.871	0.867	0.899	1.15	0.999
I fixed	1.63	0.694	0.929	0.743	0.772	0.711	0.562	1.19	1.16
K fixed	0.664	2.43	1.79	1.95	1.84	1.5	3.76	1.84	1.73
L fixed	1.72	0.642	0.976	1.06	0.888	0.853	0.454	0.991	1.26
M fixed	1.77	0.757	0.974	0.885	0.987	1.12	0.576	1.13	0.958
N fixed	0.403	0.694	0.792	0.753	1.15	1.13	0.538	0.849	0.761
P fixed	0.107	0.267	0.616	0.556	1.11	0.528	0.422	0.587	0.706
Q fixed	0.593	0.601	0.851	1.02	0.917	1.72	0.77	0.878	0.776
R fixed	0.997	3.32	2.61	2.71	1.84	2.48	5.1	1.98	1.85
V fixed	0.896	0.574	0.856	0.719	0.9	0.778	0.477	0.922	1.15
W fixed	2.03	1.56	1.2	1.48	0.751	0.861	0.556	0.996	0.926
Y fixed	1.4	1.16	1.01	1.01	0.998	0.795	0.663	1.23	1.19
pThr fixed	0.353	0.302	0.378	0.285	0.558	0.0668	0.449	0.505	0.678
pTyr fixed	0.404	0.369	0.462	0.307	0.755	0.637	0.517	0.746	0.63

STK11, construct: Full length (from UniProt Q15831)
relative phosphorylation
Details	at +1	at +2	at +3	at +4	at -1	at -2	at -3	at -4	at -5
A fixed	1.07	1.17	0.932	1.03	1.34	0.926	0.956	0.936	1.22
D fixed	0.613	0.987	0.787	0.832	0.726	0.407	0.289	0.773	0.827
E fixed	0.417	0.598	0.688	0.75	0.874	0.338	0.312	0.738	0.641
F fixed	0.801	0.907	0.891	0.898	0.582	0.932	1.81	1.5	0.939
G fixed	1.26	1.12	1.62	1.31	0.854	0.82	1.99	1.06	1.28
H fixed	1.27	1.22	1.36	1.13	1.22	0.924	1.17	1.13	1.07
I fixed	0.653	0.711	0.579	0.741	0.349	1.81	0.441	0.485	0.492
K fixed	0.647	0.595	0.892	1.11	1.59	0.867	0.95	0.857	1.49
L fixed	0.974	0.701	0.766	0.952	0.777	2.39	1.14	0.627	0.566
M fixed	1.16	0.714	0.699	0.813	1.3	1.12	1.48	0.685	0.775
N fixed	1.53	1.07	1.21	1.08	1.22	1.06	0.721	0.859	1.19
P fixed	0.597	1.86	1.55	1.71	0.472	0.709	1.16	1.27	1.86
Q fixed	1.57	0.922	1.14	1.17	1.62	0.836	0.728	0.799	0.901
R fixed	1.34	0.692	1.02	0.953	1.84	1.19	0.765	0.828	1.27
V fixed	0.654	0.882	0.7	0.724	0.495	1.06	0.385	0.498	0.532
W fixed	1.36	1.66	1.15	1	0.848	0.712	1.29	2.99	1.17
Y fixed	1.07	1.19	1.01	0.796	0.897	0.903	1.41	0.959	0.775
pThr fixed	0.539	0.947	0.782	0.571	0.36	0.852	0.662	0.713	0.84
pTyr fixed	0.43	0.743	0.736	0.581	0.559	0.553	0.746	0.632	0.897

RIPK2, construct: aa2-317 (from UniProt O43353)
relative phosphorylation
Details	at +1	at +2	at +3	at +4	at -1	at -2	at -3	at -4	at -5
A fixed	0.347	0.349	0.463	0.669	0.597	0.592	0.889	0.727	1.01
D fixed	0.267	0.348	0.308	0.731	1.09	0.599	0.412	0.738	0.674
E fixed	0.265	0.481	0.291	0.563	0.726	0.431	0.409	0.655	0.669
F fixed	2.32	1.73	3.03	1.2	1.31	1.12	1.17	1.15	1.44
G fixed	0.316	0.414	0.503	0.789	0.615	0.882	0.712	0.728	0.893
H fixed	0.643	1.41	0.734	1.11	1.29	1.54	0.905	1.02	0.985
I fixed	2.75	1.96	1.31	0.975	1.11	0.86	1.27	1.12	1.13
K fixed	0.367	1.29	0.628	1.18	0.766	0.734	0.983	0.739	0.874
L fixed	1.41	1.17	1.12	0.98	1.53	1.15	1.6	1.1	1.15
M fixed	1.4	1.12	1.41	0.967	1.74	1.18	1.2	1.23	1.17
N fixed	0.369	0.622	0.498	0.86	0.932	0.869	0.626	0.949	0.73
P fixed	0.166	0.299	0.277	0.879	0.394	0.365	0.537	0.624	0.781
Q fixed	0.496	0.788	0.425	0.847	0.784	0.82	0.631	0.679	0.727
R fixed	0.395	1.22	0.962	1.43	0.8	1.72	2.02	0.923	1.01
V fixed	1.58	1.14	0.845	0.638	0.75	0.64	0.797	1.02	0.917
W fixed	2.7	1.01	2.38	1.83	1.32	2.07	1.78	2.25	1.42
Y fixed	1.22	1.65	1.81	1.34	1.24	1.42	1.05	1.35	1.42
pThr fixed	0.578	0.83	0.416	0.82	0.77	0.688	0.707	1	0.808
pTyr fixed	0.309	0.39	0.353	0.5	1.35	0.425	0.568	0.617	0.54

Source: the supplement of paper PMC9876800
